According to paper doi:10.1101/2020.10.05.326595 (bioRxiv, 2020):

What was measured:
crystal structure = target: the molecule itself; assay: crystal structure
SEC-SAXS = target: the molecule itself; assay: SEC-SAXS

B1: ZTL G46A:G80R (LOV domain construct, residues 29-165) (domain or fragment, UniProt Q94BT6 29-165, looked up)
chain: GGPIPYPVGNLLHTAPCAFVVTDAVEPDQPIIYVNTVFEMVTGYRAEEVLGRNCRFLQCRGPFAKRRHPLVDSMVVSEIRKCIDEGIEFQGELLNFRKDGSPLMNRLRLTPIYGDDDTITHIIGIQFFIETDIDLGP
binding result (crystal structure): binds

B2: ZTL G46S:G80R (LOV domain construct, residues 29-165) (domain or fragment, UniProt Q94BT6 29-165, looked up)
chain: GGPIPYPVGNLLHTAPCSFVVTDAVEPDQPIIYVNTVFEMVTGYRAEEVLGRNCRFLQCRGPFAKRRHPLVDSMVVSEIRKCIDEGIEFQGELLNFRKDGSPLMNRLRLTPIYGDDDTITHIIGIQFFIETDIDLGP
stoichiometry N (SEC-SAXS): 2
